Consider one molecule from patent US20140162951A1.

This assay has as its target recombinant enovin (mature human enovin with NH2-terminal 6xHis tag, expressed from hEVNmat/pRSETB in E. coli) (human). Nature of the assay: SPR (BIAcore 3000), enovin immobilized, soluble GFRα3-Fc at three concentrations. In general terms: SPR reads the build-up and loss of mass on a sensor chip optically.

B1: soluble GFRα-3 IgG1-Fc fusion protein (Fc fusion, UniProt O60609 28-371, looked up, not shown: a dimerising Fc or GST)
chain: LAAGDPLPTESRLMNSCLQARRKCQADPTCSAAYHHLDSCTSSISTPLPSEEPSVPADCLEAAQQLRNSSLIGCMCHRRMKNQVACLDIYWTVHRARSLGNYELDVSPYEDTVTSKPWKMNLSKLNMLKPDSDLCLKFAMLCTLNDKCDRLRKAYGEACSGPHCQRHVCLRQLLTFFEKAAEPHAQGLLLCPCAPNDRGCGERRRNTIAPNCALPPVAPNCLELRRLCFSDPLCRSRLVDFQTHCHPMDILGTCATEQSRCLRAYLGLIGTAMTPNFVSNVNTSVALSCTCRGSGNLQEECEMLEGFFSHNPCLTEAIAAKMRFHSQLFSQDWPHPTFAVMAHQ
Regarding B1, the dissociation constant (Kd) worked out at 3.1 nM, the off-rate (koff) worked out at 0.000508 s⁻¹ and the kon worked out at 165000 M⁻¹ s⁻¹.

As usually defined, the Kd is the free concentration of one partner at which half of the binding sites on the other are occupied at equilibrium, for simple one-to-one binding. As a reminder, the koff is the first-order rate constant of dissociation. Broadly, the kon is the second-order rate constant of association.
